Results taken from the nanobody polyreactivity screen of Harvey et al. (2022).

experiment: yeast display, Sf9 membrane polyspecificity reagent, FACS + sequencing; frameworks hold sequencing errors
Summary of the method: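 A nanobody's polyreactivity label depends on the gate it was sorted from. Yeast display cells were stained with 10% biotinylated, detergent-solubilized Sf9 membrane reagent for 1 hour at 4 °C, enriched on streptavidin microbeads and sorted by FACS. The low and high (top ~1%) gates were set on anti-HA fluorescence for expression and streptavidin fluorescence for reagent binding.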

Sequence | polyreactivity (PSR sort gate)
QFQLVESGGGLVQAGGSLRLSCAASGRTFVINAMGWYRQAPGKERELVAAISRGGSRTFYADSVKGLFTISRDTAKNTVYLQMNSLKPVDTAVYYCNAVAQSGRYDYWGQGTQVTVSS | high polyreactivity
QVQLVESGGGLVQAGGSLRLSCAASGRISESNDMGWYRQAPGKERELVAAISSSGGSTYYADSVKGRFTISRDNAKNTVYLQMNSLKPEDTAVYYCAAQTGYSYGITWQFTKYNYWGQGTQVTVSS | low polyreactivity
QVQLVESGGALVQAGGSLRLSCAASGIIFYDYAMGWYRPAPGKERELVAAITWTGSSTYYADSVKGRFTISRDNAKITVYRQMNCLKQEDTAVSYCAADYWEYSPYEDLTYDYWGQGTQVTVSS | high polyreactivity
QVQLVESGGGLVQAGGSLRLSCAASGFIFNLYAMGWYRQAPGKERELVAVITGSGVRTYYADSVKGRFTISRDNAKNTVYLQMNSLKPEDTAVYYCAARTYGGYEYWGQGTQVTVSS | high polyreactivity
QVQLVESGGALVQAGGSLRLSCAASGSIFFSYAMGWYRQAPGKERELVAAISTSGGNTYYADSVKGRFTISRDNAKHTVYLQMNSLKPEDTAVYYCNDRGSYPPYRSYGYWGQGTQVTVSS | low polyreactivity
QVQLVESGGGLVQAGGRLRLSCAASGSTIGKYVMGLYRQAPGKERELVAAITNIAGSTYYADSVKGRFTISRDTAKNTVYVQLNSLNPEDTAVYYCAADIEEYYGFDDYDYSYNDYDYWGQGTQVTVSS | high polyreactivity
QVQLVESGGGLVQAGGSLRLSCAASGRTFQTNDMGLYRKAPGKERELVAAISRRGGSTYYADSVKGRFTISRDNAKNTVYLQMNSLKPEDTAVYYCAATRLSRYDYWGQGTQVTVSS | low polyreactivity
QVHLVESGGGLVQAGGSLLISCSASGSTFGTNAMGWYRQAPGKERDLVASITWSGGNTNYADSVKGRFTISRDNAKNTVYLQKKSMKPADTAVYYCAAEVFISYGVGGYYSDMDYWGQVTQVTVSS | low polyreactivity
QVQLVESGGGLVQAGGSLRLTCAASGVTFRYYAMVWYRQAPGKERELVAAITGSGTRTYYADSVKGRFTISRDNAKNTLYLQMNSLKPEDTAVYYCNAPRQPRWFDYWGQGTQVTVSS | high polyreactivity
QVQLLESGGGLVQAGGSLRLSCAASGLIFAYAMGWYRQAPGKERELVAVISWSGGSTYYADSVKGRFTISRDNAKNTVYLQKNSLKPEDTAVYYCAADYFGNWQLAGGYLGQGTQVTVSS | low polyreactivity
QVQLVESGGGLVQAGGSLRLSCAASGYIFVPYALGWYRQAPGKERELVASITGGGSTNYADSVKGRFTISRDNAKNTVYLQMNSLKPEDTAVYYCAAVLGGGEKGGRNRRFDSWGQGTQVTVSS | low polyreactivity
QVHLVESGGGLVQAGGSLRLSCAASGSTFDDYVMGWYRQAPGKESELVAAITRSGTSTYYADSVKGRFTISRDNAKNTVYLQMNSLKPEETAVYYCAAGPFGLKPYTLGYNYWGQGTQVTVSS | high polyreactivity
QVQLVESGGGLVQAGGSLRLSCAASGSIFTNAMGWYIQAPGKERELVAAISSSGGSTYYADSVKGRFTISRDNANNTVYLQMNSLKPEDTAVYYCSADHFGGRDYWGQGTQVTVSS | low polyreactivity
QVQLVESGGGLVQAGGSLRLSCAASGRIFRINAMGWYRQAPGKERELVATISSGGGSTYADSVKGRFTISRDNAKTTVYLQMNSLKPEDTAVYYCAARSRIGRYTYDYWGQGTQVTVSS | high polyreactivity
QVQLVESGGGLVQAGGSLRLICAASGSTFIINAMGWYRQAPGKERELVARITQRGTSTFYADSVKGRFTISRDNAKNTVYLQMNSLKPEDTAVYYCAARGSKSLGNKYDYWGQGTQVTVSS | high polyreactivity
QVQLVESGGGLVQAGGSLRLSCAASGYIFPPYAMGWYRQAPGKERELVATMTGIGGSTDYADSVKGRFTISRDNAKNTVYLQMNSLKPEDTAVYYCAARRDGYGTHYDYWGQGTQVTVSS | low polyreactivity
